Measurements as given in article PMC5508204, “Escherichia coli FtsA forms lipid-bound minirings that antagonize lateral interactions between FtsZ protofilaments” (Nature Communications, 2017).

B1: Escherichia coli FtsA (natural protein, E. coli, UniProt P0ABH0 1-420, looked up)
chain: MIKATDRKLVVGLEIGTAKVAALVGEVLPDGMVNIIGVGSCPSRGMDKGGVNDLESVVKCVQRAIDQAELMADCQISSVYLALSGKHISCQNEIGMVPISEEEVTQEDVENVVHTAKSVRVRDEHRVLHVIPQEYAIDYQEGIKNPVGLSGVRMQAKVHLITCHNDMAKNIVKAVERCGLKVDQLIFAGLASSYSVLTEDERELGVCVVDIGGGTMDIAVYTGGALRHTKVIPYAGNVVTSDIAYAFGTPPSDAEAIKVRHGCALGSIVGKDESVEVPSVGGRPPRSLQRQTLAEVIEPRYTELLNLVNEEILQLQEKLRQQGVKHHLAAGIVLTGGAAQIEGLAACAQRVFHTQVRIGAPLNITGLTDYAQEPYYSTAVGLLHYGKESHLNGEAEVEKRVTASVGSWIKRLNSWLRKEF
notes: FtsA, actin homologue of the divisome, Escherichia coli, wild type; ATP is thought to be present in the preparation; 0.05 mM ADP was added for storage; also called WT FtsA; His6-tagged FtsA

Key:
[1] = molecular target: the molecule itself; assay: negative stain electron tomography with subtomogram averaging; FtsA minirings with FtsZ protofilaments on lipid monolayers; 300 kV, single-axis tilt series -60 to +60 degrees; 23 tomograms; 18,400 ring-like structures averaged and classified
Escherichia coli FtsA = molecular target: B1; assay: negative stain transmission electron microscopy on lipid monolayers; E. coli polar lipid monolayer under an EM grid, on storage buffer lacking EDTA (50 mM Tris pH 7.5, 250 mM KCl, 10 mM MgCl2, 10% glycerol). Added in turn: 0.1-1 uM FtsA (40 min), 4 mM ATP (20 min), 5 uM FtsZ (5 min), 4 mM GTP (20 min). Stained with 1% uranyl acetate.; details: both partners purified
[2] = molecular target: the molecule itself; assay: as above

binding result (Escherichia coli FtsA) | Binder | stoichiometry N [1] [subunits] | binding result [2]
– | B1 | 12 | –
binds | Escherichia coli FtsZ (natural protein, E. coli, UniProt P0A9A6 1-383, looked up, FtsZ, tubulin homologue, Escherichia coli, wild type; Assembled with GTP in the assay; also called WT FtsZ; source: E. coli BL21(DE3), from a pET11 plasmid, purified (ammonium sulfate precipitation)) MFEPMELTNDAVIKVIGVGGGGGNAVEHMVRERIEGVEFFAVNTDAQALRKTAVGQTIQIGSGITKGLGAGANPEVGRNAADEDRDALRAALEGADMVFIAAGMGGGTGTGAAPVVAEVAKDLGILTVAVVTKPFNFEGKKRMAFAEQGITELSKHVDSLITIPNDKLLKVLGRGISLLDAFGAANDVLKGAVQGIAELITRPGLMNVDFADVRTVMSEMGYAMMGSGVASGEDRAEEAAEMAISSPLLEDIDLSGARGVLVNITAGFDLRLDEFETVGNTIRAFASDNATVVIGTSLDPDMNDELRVTVVATGIGMDKRPEITLVTNKQVQQPVMDRYQQHGMAPLTQEQKPVAKVVNDNAPQTAKEPDYLDIPAFLRKQAD | – | binds
binds | FtsZ* (FtsZ L169R) (natural protein, E. coli, UniProt P0A9A6 1-383, looked up, FtsZ, Escherichia coli, gain-of-function mutant L169R (FtsZ*); Assembled with GTP in the assay; source: E. coli BL21(DE3), from a pET11 plasmid, purified (ammonium sulfate precipitation)) MFEPMELTNDAVIKVIGVGGGGGNAVEHMVRERIEGVEFFAVNTDAQALRKTAVGQTIQIGSGITKGLGAGANPEVGRNAADEDRDALRAALEGADMVFIAAGMGGGTGTGAAPVVAEVAKDLGILTVAVVTKPFNFEGKKRMAFAEQGITELSKHVDSLITIPNDKLRKVLGRGISLLDAFGAANDVLKGAVQGIAELITRPGLMNVDFADVRTVMSEMGYAMMGSGVASGEDRAEEAAEMAISSPLLEDIDLSGARGVLVNITAGFDLRLDEFETVGNTIRAFASDNATVVIGTSLDPDMNDELRVTVVATGIGMDKRPEITLVTNKQVQQPVMDRYQQHGMAPLTQEQKPVAKVVNDNAPQTAKEPDYLDIPAFLRKQAD | – | binds
